Consider four molecules from US10766960 (dated 2020).

Holding throughout (assay): SPR
On the technique in general: In SPR one partner is held on a chip, and binding of the other changes the refractive index at the surface.

The target of assay [1] is T1, FcgRIIa H (human, UniProt P12318).
T1 chain: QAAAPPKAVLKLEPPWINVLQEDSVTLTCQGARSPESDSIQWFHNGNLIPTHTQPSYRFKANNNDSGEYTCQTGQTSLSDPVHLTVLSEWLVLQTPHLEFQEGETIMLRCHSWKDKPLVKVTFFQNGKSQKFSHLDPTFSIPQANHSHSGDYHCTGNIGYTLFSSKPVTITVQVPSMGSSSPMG

Assay [2] concerns the target FcgRIIIa F (human, UniProt P08637).
The target in assay [3] is FcgRIIIa V (human, UniProt P08637).
Sequence of FcgRIIIa V (P08637 17-208 F176V): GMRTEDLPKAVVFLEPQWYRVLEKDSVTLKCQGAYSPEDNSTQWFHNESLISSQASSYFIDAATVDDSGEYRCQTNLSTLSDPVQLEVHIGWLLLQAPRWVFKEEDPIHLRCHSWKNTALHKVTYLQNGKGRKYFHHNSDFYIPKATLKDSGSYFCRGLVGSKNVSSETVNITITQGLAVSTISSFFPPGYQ
The target of assay [4] is T2, FcgRIIb (human, UniProt P31994).
T2 chain: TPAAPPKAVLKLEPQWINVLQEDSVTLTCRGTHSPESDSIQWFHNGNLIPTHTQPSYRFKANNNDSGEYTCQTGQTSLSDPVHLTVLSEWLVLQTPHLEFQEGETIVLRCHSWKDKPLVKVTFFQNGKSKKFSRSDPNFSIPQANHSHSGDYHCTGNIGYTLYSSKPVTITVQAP

In assay [5] the target is T3, FcgRIIa R (human, UniProt P12318).
T3 chain: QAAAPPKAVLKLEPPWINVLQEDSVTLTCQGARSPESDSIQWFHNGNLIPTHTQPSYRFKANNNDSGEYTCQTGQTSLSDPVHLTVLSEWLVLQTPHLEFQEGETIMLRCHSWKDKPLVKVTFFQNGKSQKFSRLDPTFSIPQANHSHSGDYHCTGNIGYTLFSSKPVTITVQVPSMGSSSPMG

Assay [6] addresses T4, FcgRIa (human, UniProt P12314).
T4 chain: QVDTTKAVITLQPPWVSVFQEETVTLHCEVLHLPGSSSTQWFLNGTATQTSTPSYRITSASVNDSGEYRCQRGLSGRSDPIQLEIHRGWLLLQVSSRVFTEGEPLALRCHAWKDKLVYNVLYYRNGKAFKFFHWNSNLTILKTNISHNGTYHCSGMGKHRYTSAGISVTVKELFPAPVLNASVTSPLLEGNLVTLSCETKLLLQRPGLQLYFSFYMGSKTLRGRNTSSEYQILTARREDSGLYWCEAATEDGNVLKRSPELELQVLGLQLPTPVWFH

Sequence of FcgRIIIa F (P08637 17-208): as the sequence (P08637 17-208 F176V) above, with V160F counted along it

B1: H240-Kn179/H240-Hl089/L73-k0 (antibody)
chain 1: QDQLVQSGAEVKKPGASVKVSCKASGFNIKDTYIQWVRQAPGQGLEWMGRIDPLRKQTKYREKFEGRVTITADTSTNTAYMELSSLRSEDTAVYYCVRSGREFDYWGQGTLVTVSSASTKGPSVFPLAPSSKSTSGGTAALGCLVKDYFPEPVTVSWNSGALTSGVHTFPAVLQSSGLYSLSSVVTVPSSSLGTQTYICNVNHKPSNTKVDKKVEPKSCDKTHTCPPCPAPEYYWGPMVFLFPPKPKDTLMISRTPEVTCVVVDVSDEDPEVKFNWYVDGVEVHNAKTKPREKQYNATYRVVSVLTVLHQDWLNGKEYKCKVSNKDLPAPIEKTISKAKGQPREPQVCTLPPSRDELTKNQVSLWCLVKGFYPSDIAVEWESNGQPENNYKTTPPVLDSDGSFFLYSKLTVDKSRWQQGNVFSCSVMHEALHNHYTQKSLSLSP
chain 2: QDQLVQSGAEVKKPGASVKVSCKASGFNIKDTYIQWVRQAPGQGLEWMGRIDPLRKQTKYREKFEGRVTITADTSTNTAYMELSSLRSEDTAVYYCVRSGREFDYWGQGTLVTVSSASTKGPSVFPLAPSSKSTSGGTAALGCLVKDYFPEPVTVSWNSGALTSGVHTFPAVLQSSGLYSLSSVVTVPSSSLGTQTYICNVNHKPSNTKVDKKVEPKSCDKTHTCPPCPAPELLTGPSVFLFPPKPKDTLMISRTPEVTCVVVDVSHEEPEVKFNWYVDGVEVHNAKTKPREEQYNSTYRVVSVLTVLHQDWLNGKEYKCKVSNDALPKPIEETISKAKGQPREPQVYTLPPSRCELTKNQVSLSCAVKGFYPSDIAVEWESNGQPENNYKTTPPVLDSDGSFFLVSKLTVDKSRWQQGNVFSCSVMHEALHNHYTQKSLSLSP
chain 3: DIQMTQSPSSLSASVGDRVTITCRASQDIHKYIAWYQQKPGQAPRLLIQYTSTLQPGVPSRFSGSGSGTDYTFTISSLQPEDIATYYCLQYEQLRTFGGGTKVEIKRTVAAPSVFIFPPSDEQLKSGTASVVCLLNNFYPREAKVQWKVDNALQSGNSQESVTEQDSKDSTYSLSSTLTLSKADYEKHKVYACEVTHQGLSSPVTKSFNRGEC
As a reminder, the Kd is the constant that tells how readily two partners part at equilibrium. The low end stands for a tighter complex, the high end for a looser complex. On to B1, for which the equilibrium dissociation constant (Kd) in assay [1] came to 47 nM; in assay [2], 39 nM; in assay [3] it was 18 nM; in assay [4], 400 nM; in assay [5] it was 18 nM; in assay [6], 0.46 nM.

B2: H240-Kn180/H240-Hl089/L73-k0 (antibody)
chain 1: QDQLVQSGAEVKKPGASVKVSCKASGFNIKDTYIQWVRQAPGQGLEWMGRIDPLRKQTKYREKFEGRVTITADTSTNTAYMELSSLRSEDTAVYYCVRSGREFDYWGQGTLVTVSSASTKGPSVFPLAPSSKSTSGGTAALGCLVKDYFPEPVTVSWNSGALTSGVHTFPAVLQSSGLYSLSSVVTVPSSSLGTQTYICNVNHKPSNTKVDKKVEPKSCDKTHTCPPCPAPEYYWGPMVFLFPPKPKDTLMISRTPEVTCVVVDVSDEDPEVKFNWYVDGVEVHNAKTKPRERQYNATYRVVSVLTVLHQDWLNGKEYKCKVSNKDLPAPIEKTISKAKGQPREPQVCTLPPSRDELTKNQVSLWCLVKGFYPSDIAVEWESNGQPENNYKTTPPVLDSDGSFFLYSKLTVDKSRWQQGNVFSCSVMHEALHNHYTQKSLSLSP
chain 2: QDQLVQSGAEVKKPGASVKVSCKASGFNIKDTYIQWVRQAPGQGLEWMGRIDPLRKQTKYREKFEGRVTITADTSTNTAYMELSSLRSEDTAVYYCVRSGREFDYWGQGTLVTVSSASTKGPSVFPLAPSSKSTSGGTAALGCLVKDYFPEPVTVSWNSGALTSGVHTFPAVLQSSGLYSLSSVVTVPSSSLGTQTYICNVNHKPSNTKVDKKVEPKSCDKTHTCPPCPAPELLTGPSVFLFPPKPKDTLMISRTPEVTCVVVDVSHEEPEVKFNWYVDGVEVHNAKTKPREEQYNSTYRVVSVLTVLHQDWLNGKEYKCKVSNDALPKPIEETISKAKGQPREPQVYTLPPSRCELTKNQVSLSCAVKGFYPSDIAVEWESNGQPENNYKTTPPVLDSDGSFFLVSKLTVDKSRWQQGNVFSCSVMHEALHNHYTQKSLSLSP
chain 3: DIQMTQSPSSLSASVGDRVTITCRASQDIHKYIAWYQQKPGQAPRLLIQYTSTLQPGVPSRFSGSGSGTDYTFTISSLQPEDIATYYCLQYEQLRTFGGGTKVEIKRTVAAPSVFIFPPSDEQLKSGTASVVCLLNNFYPREAKVQWKVDNALQSGNSQESVTEQDSKDSTYSLSSTLTLSKADYEKHKVYACEVTHQGLSSPVTKSFNRGEC
As for B2, the Kd in assay [1] is 38 nM; in assay [2], 24 nM; in assay [3] it was 14 nM; in assay [4], 380 nM; in assay [5], 16 nM; in assay [6], 0.27 nM.

B3: H240-Kn192/H240-Hl204/L73-k0 (antibody)
chain 1: QDQLVQSGAEVKKPGASVKVSCKASGFNIKDTYIQWVRQAPGQGLEWMGRIDPLRKQTKYREKFEGRVTITADTSTNTAYMELSSLRSEDTAVYYCVRSGREFDYWGQGTLVTVSSASTKGPSVFPLAPSSKSTSGGTAALGCLVKDYFPEPVTVSWNSGALTSGVHTFPAVLQSSGLYSLSSVVTVPSSSLGTQTYICNVNHKPSNTKVDKKVEPKSCDKTHTCPPCPAPEYNWGPMVFLFPPKPKDTLMISRTPEVTCVVVDVSDEDPEVKFNWYVDGVEVHNAKTKPREKQYNATYRVVSVLTVLHQDWLNGKEYKCKVSNKDLPAPIEKTISKAKGQPREPQVCTLPPSRDELTKNQVSLWCLVKGFYPSDIAVEWESNGQPENNYKTTPPVLDSDGSFFLYSKLTVDKSRWQQGNVFSCSVMHEALHNHYTQKSLSLSP
chain 2: QDQLVQSGAEVKKPGASVKVSCKASGFNIKDTYIQWVRQAPGQGLEWMGRIDPLRKQTKYREKFEGRVTITADTSTNTAYMELSSLRSEDTAVYYCVRSGREFDYWGQGTLVTVSSASTKGPSVFPLAPSSKSTSGGTAALGCLVKDYFPEPVTVSWNSGALTSGVHTFPAVLQSSGLYSLSSVVTVPSSSLGTQTYICNVNHKPSNTKVDKKVEPKSCDKTHTCPPCPAPELLTGPSVFLFPPKPKDTLMISRTPEVTCVVVDVSHEEPEVKFNWYVDGVEVHNAKTKPREEQYNSTYRVVSVLTVLHQDWLNGKEYKCKVSNDALPKPEEETISKAKGQPREPQVYTLPPSRCELTKNQVSLSCAVKGFYPSDIAVEWESNGQPENNYKTTPPVLDSDGSFFLVSKLTVDKSRWQQGNVFSCSVMHEALHNHYTQKSLSLSP
chain 3: DIQMTQSPSSLSASVGDRVTITCRASQDIHKYIAWYQQKPGQAPRLLIQYTSTLQPGVPSRFSGSGSGTDYTFTISSLQPEDIATYYCLQYEQLRTFGGGTKVEIKRTVAAPSVFIFPPSDEQLKSGTASVVCLLNNFYPREAKVQWKVDNALQSGNSQESVTEQDSKDSTYSLSSTLTLSKADYEKHKVYACEVTHQGLSSPVTKSFNRGEC
As to B3, the Kd in assay [1] was 42 nM; in assay [2] it was 12 nM; in assay [3], 2.2 nM; in assay [4], 290 nM; in assay [5], 19 nM; in assay [6], less than 0.019 nM.

B4: H240-Kn193/H240-Hl204/L73-k0 (antibody)
chain 1: QDQLVQSGAEVKKPGASVKVSCKASGFNIKDTYIQWVRQAPGQGLEWMGRIDPLRKQTKYREKFEGRVTITADTSTNTAYMELSSLRSEDTAVYYCVRSGREFDYWGQGTLVTVSSASTKGPSVFPLAPSSKSTSGGTAALGCLVKDYFPEPVTVSWNSGALTSGVHTFPAVLQSSGLYSLSSVVTVPSSSLGTQTYICNVNHKPSNTKVDKKVEPKSCDKTHTCPPCPAPEYNWGPMVFLFPPKPKDTLMISRTPEVTCVVVDVSDEDPEVKFNWYVDGVEVHNAKTKPRERQYNATYRVVSVLTVLHQDWLNGKEYKCKVSNKDLPAPIEKTISKAKGQPREPQVCTLPPSRDELTKNQVSLWCLVKGFYPSDIAVEWESNGQPENNYKTTPPVLDSDGSFFLYSKLTVDKSRWQQGNVFSCSVMHEALHNHYTQKSLSLSP
chain 2: QDQLVQSGAEVKKPGASVKVSCKASGFNIKDTYIQWVRQAPGQGLEWMGRIDPLRKQTKYREKFEGRVTITADTSTNTAYMELSSLRSEDTAVYYCVRSGREFDYWGQGTLVTVSSASTKGPSVFPLAPSSKSTSGGTAALGCLVKDYFPEPVTVSWNSGALTSGVHTFPAVLQSSGLYSLSSVVTVPSSSLGTQTYICNVNHKPSNTKVDKKVEPKSCDKTHTCPPCPAPELLTGPSVFLFPPKPKDTLMISRTPEVTCVVVDVSHEEPEVKFNWYVDGVEVHNAKTKPREEQYNSTYRVVSVLTVLHQDWLNGKEYKCKVSNDALPKPEEETISKAKGQPREPQVYTLPPSRCELTKNQVSLSCAVKGFYPSDIAVEWESNGQPENNYKTTPPVLDSDGSFFLVSKLTVDKSRWQQGNVFSCSVMHEALHNHYTQKSLSLSP
chain 3: DIQMTQSPSSLSASVGDRVTITCRASQDIHKYIAWYQQKPGQAPRLLIQYTSTLQPGVPSRFSGSGSGTDYTFTISSLQPEDIATYYCLQYEQLRTFGGGTKVEIKRTVAAPSVFIFPPSDEQLKSGTASVVCLLNNFYPREAKVQWKVDNALQSGNSQESVTEQDSKDSTYSLSSTLTLSKADYEKHKVYACEVTHQGLSSPVTKSFNRGEC
Regarding B4, the Kd in assay [1] is 35 nM; in assay [2], 11 nM; in assay [3], 1.8 nM; in assay [4] it was 290 nM; in assay [5] it was 16 nM; in assay [6], less than 0.024 nM.
